In the nanobody polyreactivity screen of Harvey et al. (2022):

Assay: yeast display, Sf9 membrane polyspecificity reagent, FACS + sequencing; frameworks hold sequencing errors
Method in brief: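 Sorting gates, low and high (top ~1%), were placed on anti-HA fluorescence to track expression and on streptavidin fluorescence to track reagent binding. A clone's polyreactivity label is taken from the gate it came out of. The reagent was 10% biotinylated, detergent-solubilized Sf9 membrane, applied for 1 hour at 4 °C to galactose-induced yeast display cells.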

For “QVQLVESGGGLVQAGGSLRLSCAASGSTFKYNTMGWYRQAPGKKGELVAAITISGGTTRYADSVKGRFTISRDNAKNTVYLQMNSLKPEDTAVYYCAARVYTYYYDLHKRYYWGQGTQVTVSS”, which “polyreactivity (PSR sort gate)” value is on record?
The value was “high polyreactivity”.

With “QVQLVESGGGLVQAGGSLRLSCAASGSTFKYYAMGWYRPAPGKERELVAAISGRGGRTYYADSVKGRFTISRDNAKNTVYLQMNSLKPEDTAVYYCNAPFLGAHHYGYEYWGQRTQVTVSS” as the sequence, how does the “polyreactivity (PSR sort gate)” value read?
Its value is “high polyreactivity”.

Which “polyreactivity (PSR sort gate)” value does the source give for “QVQLVESGGGLVQAGGSLRLSCAASGSTFKYYAMGWYRQAAGKERELVATITRRSGSTYYADSVKGRFTISRDNAKNTVYLQMNSLKPEDTAVYYCNAYGPYKYNYWGQGTQVTVSS” here?
The value was “high polyreactivity”.

With “QVQLVESGGGLVQAGGSLRLSCAASGSTFKYYAMGWYRQAPGKEMELVAAIRGGGSTNYADSVTGPFTISRDNAKNTVYLQMNSLKPEDTAVYYCAARYGWYRGYNYWGQGTQVTVSS” as the sequence, how does the “polyreactivity (PSR sort gate)” value read?
Its value is “high polyreactivity”.

With “QVQLVESGGGLVQAGGSLRLSCAASGSTFKYYAMGWYRQAPGKERELVAAISASGGTTYYADSVKGRFTISRDNAKNTVYVQMNSLKPEDTAVYDCAARYLTTFSRTDMEYWGQGTQVTVSS” as the sequence, how does the “polyreactivity (PSR sort gate)” value read?
Its value is “low polyreactivity”.

For “QVQLVESGGGLVQAGGSLRLSCAASGSTFKYYAMGWYRQAPGKERELVATITRRSGSTYYADSVKGRFTISRDNAKNTVYLQMNSLKPEDTAVYYCNAYGPYKYNYWGQGTQVTVSS”, which “polyreactivity (PSR sort gate)” value is on record?
Its value is “high polyreactivity”.

With “QVQLVESGGGLVQAGGSLRLSCAASGSTFLDNTMGWYRQAPGKEREFVAAISSSVYSTYYADSVKGRFSISRDNAKNTVYLQMNSLKPEDTAVYFCAADRGFYPSLWDYDYWGQGTQVTVSS” as the sequence, how does the “polyreactivity (PSR sort gate)” value read?
Its value is “low polyreactivity”.

Which “polyreactivity (PSR sort gate)” value does the source give for “QVQLVESGGGLVQAGGSLRLSCAASGSTFLDYAMGWYRQAPGKERELVAGINSGGSTNYADSVKGRFTISRDNAKNTVYLQMNSLKPEDTAVYYCAADRVGNEYDYWGQGTQVTVSS” here?
The value was “low polyreactivity”.

For “QVQLVESGGGLVQAGGSLRLSCAASGSTFLDYTMGWYRQAPGKERELVAVISYRAGSTYYADSVKGRFTISRDNAKNTVYLQMNSLKPEDTAVYYCNADYYNYWLRRRYVWYESWGQGTQVTVSS”, which “polyreactivity (PSR sort gate)” value is on record?
The value was “low polyreactivity”.

For “QVQLVESGGGLVQAGGSLRLSCAASGSTFLGNAMGWYRQAPGKEREFVAAITVSGGSTYYADSVKGRFTISRDNAKNTVYLQMNSLKPEDTAVYYCAARYLRYSSKTIQNEDYWGQVTQVTVSS”, which “polyreactivity (PSR sort gate)” value is on record?
The value was “high polyreactivity”.

Which “polyreactivity (PSR sort gate)” value does the source give for “QVQLVESGGGLVQAGGSLRLSCAASGSTFLGNAMGWYRQAPGKERELVAAISGRGGSTYYADSVKGRFTISRDNAKNTVYLQMNSLKPEDTAVYYCAAPLYHYVQYGYWGQGTQVTVSS” here?
The value was “high polyreactivity”.

With “QVQLVESGGGLVQAGGSLRLSCAASGSTFLGNAMGWYRQAPGKERELVASIRWTTGSTYYADSVKGRFTISRDNAKNTVYLQMNSLKPEDTAVYYCAKGLYVQFDYWGLGTQVTVSS” as the sequence, how does the “polyreactivity (PSR sort gate)” value read?
Its value is “low polyreactivity”.

For “QVQLVESGGGLVQAGGSLRLSCAASGSTFLGYAMGWYRQAPGKERELVAAITYSAGSTYYADSVKGRFTISRDNAKNTVYLQMNSLKPEDTAVYYSAKRYSGYDHWGQGTQVTVSS”, which “polyreactivity (PSR sort gate)” value is on record?
Its value is “low polyreactivity”.

With “QVQLVESGGGLVQAGGSLRLSCAASGSTFLGYAMGWYRQAPGKERELVAVIDNGGDTYYADSVKGRFTISRDNAKNTVYLQINSLKPEDTEVYYCAADLSYLGYWEYDYWGQGTQVTVSS” as the sequence, how does the “polyreactivity (PSR sort gate)” value read?
Its value is “low polyreactivity”.

For “QVQLVESGGGLVQAGGSLRLSCAASGSTFLKNAMGWYRQAPGKERELVAAISYSTTRTYYADSVKGRFTISRDNAKNTVYLQMNSLKPEDTAVYSCNARWQEPLKYDYWGQGTQVTVSS”, which “polyreactivity (PSR sort gate)” value is on record?
Its value is “low polyreactivity”.

Which “polyreactivity (PSR sort gate)” value does the source give for “QVQLVESGGGLVQAGGSLRLSCAASGSTFLKNAMGWYRQAPGKERELVAAISYSTTRTYYADSVKGRFTISRDNAKNTVYLQMNSLKPEDTAVYYCNKASYWGSGFDYWGQGTQVTVSS” here?
The value was “low polyreactivity”.
